T1: human FAPα (Fibroblast activation protein alpha), cell surface expressed (human, UniProt Q12884 1-760)
T1 construct: Endogenous on human lung fibroblasts and CAFs
T1 sequence: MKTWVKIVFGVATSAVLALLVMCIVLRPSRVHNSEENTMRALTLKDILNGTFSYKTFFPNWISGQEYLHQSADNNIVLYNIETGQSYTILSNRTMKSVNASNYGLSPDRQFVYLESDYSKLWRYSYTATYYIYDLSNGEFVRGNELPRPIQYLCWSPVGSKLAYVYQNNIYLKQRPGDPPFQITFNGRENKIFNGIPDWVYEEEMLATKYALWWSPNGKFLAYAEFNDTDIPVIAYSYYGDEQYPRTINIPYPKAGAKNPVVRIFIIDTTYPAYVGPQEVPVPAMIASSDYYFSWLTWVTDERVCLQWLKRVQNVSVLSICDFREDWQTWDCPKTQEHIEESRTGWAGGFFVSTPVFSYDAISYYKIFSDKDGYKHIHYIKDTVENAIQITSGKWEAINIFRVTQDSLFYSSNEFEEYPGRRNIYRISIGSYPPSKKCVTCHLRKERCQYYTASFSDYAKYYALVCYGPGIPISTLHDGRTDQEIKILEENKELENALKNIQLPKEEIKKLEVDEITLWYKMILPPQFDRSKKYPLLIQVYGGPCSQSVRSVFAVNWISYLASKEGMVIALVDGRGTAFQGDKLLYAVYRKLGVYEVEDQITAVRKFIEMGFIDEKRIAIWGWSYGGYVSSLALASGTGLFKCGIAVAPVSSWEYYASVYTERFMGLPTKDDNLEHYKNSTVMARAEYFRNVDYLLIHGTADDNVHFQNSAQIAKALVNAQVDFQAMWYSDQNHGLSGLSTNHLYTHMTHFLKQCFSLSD

T2: human DR4 (Death Receptor 4), cell surface expressed on human tumor cell lines (human, UniProt O00220 24-468)
T2 construct: also called TNFRSF10A; TRAIL-R1
T2 sequence: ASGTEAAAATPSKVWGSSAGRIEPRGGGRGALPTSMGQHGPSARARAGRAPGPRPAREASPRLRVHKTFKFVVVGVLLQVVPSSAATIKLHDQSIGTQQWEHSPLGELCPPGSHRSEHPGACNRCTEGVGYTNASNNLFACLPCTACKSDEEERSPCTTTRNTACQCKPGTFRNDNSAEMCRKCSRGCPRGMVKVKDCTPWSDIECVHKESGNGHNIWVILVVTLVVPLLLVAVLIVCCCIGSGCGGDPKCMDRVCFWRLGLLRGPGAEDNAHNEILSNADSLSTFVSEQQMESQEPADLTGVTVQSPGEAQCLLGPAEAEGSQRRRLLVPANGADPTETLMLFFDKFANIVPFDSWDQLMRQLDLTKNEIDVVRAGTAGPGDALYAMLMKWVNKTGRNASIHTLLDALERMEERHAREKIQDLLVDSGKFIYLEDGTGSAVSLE


Legend:
[1] = biological target: T1, human FAPα (Fibroblast activation …); experiment: flow cytometry, human lung fibroblasts, n = 2
Procedure: Binding of bispecific or monoclonal antibodies carrying the anti-FAPα arm derived from IgG1-FAPα-FERL (BisG1-FAPα-FERL/DR4-FERR, BisG1-FAPα-FERL/b12-FERR, and IgG1-FAPα-FERL) to cell surface expressed human FAPα was analyzed by flow cytometry using human lung fibroblasts and CAFs, which endogenously express FAPα. BisG1-b12-FERL/b12-FERR was used as negative control.
Human lung fibroblasts and CAFs (50,000 cells/well) were seeded in 96-Well round bottom plates (Greiner Bio-one, Cat #650101). Antibody dilutions were prepared using fluorescence-activated cell sorting (FACS) buffer, consisting of phosphate buffer saline (PBS, Lonza, Cat #BE17-517Q)+1% Bovine Serum Albumin (BSA, Roche, Cat #10735086001)+0.02% Sodium Azide (Bio-World, Cat #41920044-3). Plates were centrifuged, supernatant was removed, cells were resuspended in 50 μL of human Fc Block (BD, Cat #564220, diluted 1:100 in FACS buffer) and 50 μL of viability stain TO-PRO-3 Iodide (Thermo Fisher, Cat #T3605, diluted 1: 25,000 in FACS buffer), and incubated for 15 min at 4° C. Plates were washed three times with FACS buffer. Plates were centrifuged, supernatant was removed, cells were resuspended in 50 μL of antibody dilutions (concentration range 90-0.0005 μg/mL, three-fold dilution steps using FACS buffer) of BisG1-FAPα-FERL/DR4-FERR, BisG1-FAPα-FERL/b12-FERR, BisG1-b12-FERL/b12-FERR (top six concentrations only for CAFs culture) or IgG1-FAPα-FERL (top four concentrations only for CAFs culture) and incubated for 30 min at 4° C. Cells were washed three times with FACS buffer and resuspended in 50 μL of Fluorescein isothiocyanate (FITC)-labeled polyclonal antibody goat anti-mouse IgG1 (Jackson Immuno Research, Cat #109-096-097, diluted 1:100 in FACS buffer). […] Antibody binding to viable cells (TO-PRO-3 negative) was analyzed by flow cytometry on a FACSCelesta™ (BD biosciences) and data were processed using FlowJo_v10.8.1 (FlowJo LLC). Geomean fluorescence intensity, gMFI, was determined and visualized using GraphPad Prism.

[2] = biological target: T2, human DR4 (Death Receptor 4), cell …; experiment: flow cytometry, MDA-MB-231 cells, average ± SEM
[3] = biological target: T2, human DR4 (Death Receptor 4), cell …; experiment: flow cytometry, HCT-116 cells, n = 1
[4] = biological target: T2, human DR4 (Death Receptor 4), cell …; experiment: flow cytometry, A549 cells, n = 2
[5] = biological target: T2, human DR4 (Death Receptor 4), cell …; experiment: flow cytometry, HCT-116 cells, average ± SEM
[6] = biological target: T2, human DR4 (Death Receptor 4), cell …; experiment: flow cytometry, HCT-15 cells, n = 2
[7] = biological target: T2, human DR4 (Death Receptor 4), cell …; experiment: flow cytometry, DLD-1 cells, n = 1

Row | Binder | EC50 [1] [µg/mL] | EC50 [2] [µg/mL] | EC50 [3] [µg/mL] | EC50 [4] [µg/mL] | EC50 [5] [µg/mL] | EC50 [6] [µg/mL] | EC50 [7] [µg/mL]
1 | BisG1-FAPα-FERL/b12-FERR (bispecific antibody, human IgG1, kappa) heavy 1: EVQLLESGGGLVQPGGSPRLSCEASGFTFSSYALSWVRQAPGKGLEWVSAISGSGGGRYYADSVKGRFTISRDNSKNTLFLQMNSLRAEDTAVYYCAKEGYSSSGTYWDHWGQGTLVTVSSASTKGPSVFPLAPSSKSTSGGTAALGCLVKDYFPEPVTVSWNSGALTSGVHTFPAVLQSSGLYSLSSVVTVPSSSLGTQTYICNVNHKPSNTKVDKRVEPKSCDKTHTCPPCPAPEFERGPSVFLFPPKPKDTLMISRTPEVTCVVVDVSHEDPEVKFNWYVDGVEVHNAKTKPREEQYNSTYRVVSVLTVLHQDWLNGKEYKCKVSNKALPAPIEKTISKAKGQPREPQVYTLPPSREEMTKNQVSLTCLVKGFYPSDIAVEWESNGQPENNYKTTPPVLDSDGSFLLYSKLTVDKSRWQQGNVFSCSVMHEALHNHYTQKSLSLSPG light 1: AIQMTQSPSSVSASVGDRVTITCRASQGVSSWLAWYQQKPGRAPKLLIYVASTLQSGVPSRFSGSGSGTDFTLTINSLQPEDFATYYCQQANSFPPTFGQGTRLEMKRTVAAPSVFIFPPSDEQLKSGTASVVCLLNNFYPREAKVQWKVDNALQSGNSQESVTEQDSKDSTYSLSSTLTLSKADYEKHKVYACEVTHQGLSSPVTKSFNRGEC heavy 2: QVQLVQSGAEVKKPGASVKVSCQASGYRFSNFVIHWVRQAPGQRFEWMGWINPYNGNKEFSAKFQDRVTFTADTSANTAYMELRSLRSADTAVYYCARVGPYSWDDSPQDNYYMDVWGKGTTVIVSSASTKGPSVFPLAPSSKSTSGGTAALGCLVKDYFPEPVTVSWNSGALTSGVHTFPAVLQSSGLYSLSSVVTVPSSSLGTQTYICNVNHKPSNTKVDKRVEPKSCDKTHTCPPCPAPEFERGPSVFLFPPKPKDTLMISRTPEVTCVVVDVSHEDPEVKFNWYVDGVEVHNAKTKPREEQYNSTYRVVSVLTVLHQDWLNGKEYKCKVSNKALPAPIEKTISKAKGQPREPQVYTLPPSREEMTKNQVSLTCLVKGFYPSDIAVEWESNGQPENNYKTTPPVLDSDGSFFLYSRLTVDKSRWQQGNVFSCSVMHEALHNHYTQKSLSLSPG light 2: EIVLTQSPGTLSLSPGERATFSCRSSHSIRSRRVAWYQHKPGQAPRLVIHGVSNRASGISDRFSGSGSGTDFTLTITRVEPEDFALYYCQVYGASSYTFGQGTKLERKRTVAAPSVFIFPPSDEQLKSGTASVVCLLNNFYPREAKVQWKVDNALQSGNSQESVTEQDSKDSTYSLSSTLTLSKADYEKHKVYACEVTHQGLSSPVTKSFNRGEC | 0.034 | – | – | – | – | – | –
2 | IgG1-FAPα-FERL (antibody, Bivalent monoclonal IgG1 kappa) heavy: EVQLLESGGGLVQPGGSPRLSCEASGFTFSSYALSWVRQAPGKGLEWVSAISGSGGGRYYADSVKGRFTISRDNSKNTLFLQMNSLRAEDTAVYYCAKEGYSSSGTYWDHWGQGTLVTVSSASTKGPSVFPLAPSSKSTSGGTAALGCLVKDYFPEPVTVSWNSGALTSGVHTFPAVLQSSGLYSLSSVVTVPSSSLGTQTYICNVNHKPSNTKVDKRVEPKSCDKTHTCPPCPAPEFERGPSVFLFPPKPKDTLMISRTPEVTCVVVDVSHEDPEVKFNWYVDGVEVHNAKTKPREEQYNSTYRVVSVLTVLHQDWLNGKEYKCKVSNKALPAPIEKTISKAKGQPREPQVYTLPPSREEMTKNQVSLTCLVKGFYPSDIAVEWESNGQPENNYKTTPPVLDSDGSFLLYSKLTVDKSRWQQGNVFSCSVMHEALHNHYTQKSLSLSPG light: AIQMTQSPSSVSASVGDRVTITCRASQGVSSWLAWYQQKPGRAPKLLIYVASTLQSGVPSRFSGSGSGTDFTLTINSLQPEDFATYYCQQANSFPPTFGQGTRLEMKRTVAAPSVFIFPPSDEQLKSGTASVVCLLNNFYPREAKVQWKVDNALQSGNSQESVTEQDSKDSTYSLSSTLTLSKADYEKHKVYACEVTHQGLSSPVTKSFNRGEC | 0.006 | – | – | – | – | – | –
3 | IgG1-DR4-FERR (antibody, V domains shown, Bivalent monoclonal IgG1 lambda) VH: QVQLQESGPGLVKPSGTLSLTCAVSGGSISSYSWWSWIRQPPGKGLEWIGELYHSGSTNYNPSLKSRVTISVDKSKNQFSLKLRSVTAADTAVYYCVRGVATIDYWGQGTLVTVSS VL: QSALTQPPSASGSPGQSVTISCTGTSSDVGGYNFVSWYQQDPGKAPKLLIYEVTKRPSGVPDRFSGSKSGNTASLTVSGLQAEDEADYYCSSYAGSNNVMFGGGTKLTVLG | – | 0.25 | 0.22 | 0.26 | 0.16 | 0.17 | 0.33
